Experimental data reported in patent US20240254222A1 (Bayer, published 2024).

T1: Mouse Semaphorin3A-Sema Domain, TPP-19069 (mouse, UniProt O08665 21-569)
T1 construct: produced inhouse
T1 sequence: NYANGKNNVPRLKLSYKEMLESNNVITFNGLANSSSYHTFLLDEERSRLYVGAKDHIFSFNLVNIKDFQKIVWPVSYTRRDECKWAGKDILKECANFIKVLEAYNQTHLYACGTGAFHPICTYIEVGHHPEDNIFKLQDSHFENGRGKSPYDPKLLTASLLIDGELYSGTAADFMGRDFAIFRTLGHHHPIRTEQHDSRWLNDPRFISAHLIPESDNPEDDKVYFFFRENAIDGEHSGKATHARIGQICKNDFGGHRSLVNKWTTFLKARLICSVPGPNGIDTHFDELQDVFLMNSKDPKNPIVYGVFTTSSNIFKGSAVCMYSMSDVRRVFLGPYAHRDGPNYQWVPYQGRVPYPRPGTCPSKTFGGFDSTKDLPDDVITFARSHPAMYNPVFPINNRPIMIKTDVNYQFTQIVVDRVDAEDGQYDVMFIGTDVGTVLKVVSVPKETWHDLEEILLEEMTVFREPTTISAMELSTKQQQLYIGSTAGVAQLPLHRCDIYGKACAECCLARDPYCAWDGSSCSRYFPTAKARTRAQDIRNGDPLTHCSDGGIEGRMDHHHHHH

T2: Cyno Semaphorin3A-Sema Domain, TPP-19122 (cynomolgus (Macaca fascicularis), UniProt Q63548 21-569 (rat entry), limits assumed)
T2 construct: produced inhouse
T2 chain: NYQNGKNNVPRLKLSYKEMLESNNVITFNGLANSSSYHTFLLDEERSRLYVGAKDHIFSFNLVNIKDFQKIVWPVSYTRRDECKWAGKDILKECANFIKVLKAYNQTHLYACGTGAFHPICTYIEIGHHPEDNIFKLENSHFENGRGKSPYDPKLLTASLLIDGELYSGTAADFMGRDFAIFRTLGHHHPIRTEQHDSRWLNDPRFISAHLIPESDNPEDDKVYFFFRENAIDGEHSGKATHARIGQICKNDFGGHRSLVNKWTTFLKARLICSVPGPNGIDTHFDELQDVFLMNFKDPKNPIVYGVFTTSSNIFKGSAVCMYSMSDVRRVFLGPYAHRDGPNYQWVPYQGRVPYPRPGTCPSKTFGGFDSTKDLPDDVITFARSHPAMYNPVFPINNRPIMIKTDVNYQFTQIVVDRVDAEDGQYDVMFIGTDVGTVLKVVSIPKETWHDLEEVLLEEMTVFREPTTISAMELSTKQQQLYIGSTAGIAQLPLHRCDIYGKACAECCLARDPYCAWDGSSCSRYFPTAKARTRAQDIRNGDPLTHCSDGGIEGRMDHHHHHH

T3: Human Semaphorin3A-Sema Domain, TPP-19068 (human, UniProt Q14563 21-569)
T3 construct: produced inhouse in HEK293-6E; also called human monovalent Sema3A domain
T3 sequence: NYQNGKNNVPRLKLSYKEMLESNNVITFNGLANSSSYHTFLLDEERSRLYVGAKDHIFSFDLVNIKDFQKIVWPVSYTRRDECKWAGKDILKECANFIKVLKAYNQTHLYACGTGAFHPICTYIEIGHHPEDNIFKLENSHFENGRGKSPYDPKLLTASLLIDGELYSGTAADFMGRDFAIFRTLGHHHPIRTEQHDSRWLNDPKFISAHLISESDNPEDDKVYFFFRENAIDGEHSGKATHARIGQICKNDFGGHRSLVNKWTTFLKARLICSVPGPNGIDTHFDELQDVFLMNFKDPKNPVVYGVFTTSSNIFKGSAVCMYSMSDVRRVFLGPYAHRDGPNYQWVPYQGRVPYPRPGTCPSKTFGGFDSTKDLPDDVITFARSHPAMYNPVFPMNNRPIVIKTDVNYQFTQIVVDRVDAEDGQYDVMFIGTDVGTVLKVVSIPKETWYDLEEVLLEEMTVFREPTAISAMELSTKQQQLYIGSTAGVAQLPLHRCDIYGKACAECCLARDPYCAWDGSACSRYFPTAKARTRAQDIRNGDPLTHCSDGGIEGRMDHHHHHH


Assays:
[1] = biological target: T1, Mouse Semaphorin3A-Sema Domain, …; experiment: SPR, captured antibody, Sema3A domain analyte
Experimental: (§1) To assess the binding kinetics and affinity of anti-Sema3A antibodies as well as their species cross-reactivity profile, binding assays were conducted using surface plasmon resonance (SPR). Binding assays were performed on a Biacore T200 instrument or on a Biacore 8K+ instrument (Cytiva) at 25° C. using assay buffer HBS P+, 300 mM NaCl, 0.75 mM CaCl₂, 2.5 mM MgCl₂, 1 mg/ml BSA, 0.05% NaN₃. Antibodies were captured either via anti-human Fc IgGs (“Human antibody capture kit”, Order No. BR100839, Cytiva) or in case of Fc-tagged analytes by anti-human Fab IgGs (“Human Fab capture kit”, Order No. 28958325, Cytiva) covalently amine coupled to a Series S CM5 sensor chip (Cytiva). The amine coupling was carried out according to the manufacturer's instructions using 1-ethyl-3-(3-dimethylaminopropyl) carbodiimide hydrochloride (EDC), N-hydroxysuccinimide (NHS) and ethanolamine HCl, pH 8.5 (“Amine Coupling Kit” BR-1000-50, Cytiva.). For phage display hits Fc-tagged human and mouse Sema3A was used as analytes in a concentration range from 1.56-200 nM. Human, mouse, cynomolgus, rat, dog and pig monovalent Sema3A domain were used as analytes in a concentration series from […] in multi cycle kinetics mode or in 100 nM for binding analysis only. The sensor surface was regenerated with glycine pH 2.0 after each antigen injection. Obtained sensorgrams were double referenced (subtraction of reference flow cell signal and buffer injection) and were fitted to a 1:1 Langmuir binding model to derive kinetic data using the Biacore T200 Evaluation software.

[2] = biological target: T2, Cyno Semaphorin3A-Sema Domain, TPP-19122; experiment: SPR, captured antibody, Sema3A domain analyte
Experimental: as §1

[3] = biological target: T3, Human Semaphorin3A-Sema Domain, …; experiment: SPR, captured antibody, Sema3A domain analyte
Experimental: as §1

[4] = biological target: T4, Human Semaphorin3A-Fc (R&D Systems), TPP-13211 (human); experiment: competition ELISA on coated TPP-13211, competitor biotinylated TPP-15374
T4 construct: R&D Systems 1250-S3; also called recombinant human Sema3A-Fc chimera
T4 sequence (chain, as listed by the source limits assumed): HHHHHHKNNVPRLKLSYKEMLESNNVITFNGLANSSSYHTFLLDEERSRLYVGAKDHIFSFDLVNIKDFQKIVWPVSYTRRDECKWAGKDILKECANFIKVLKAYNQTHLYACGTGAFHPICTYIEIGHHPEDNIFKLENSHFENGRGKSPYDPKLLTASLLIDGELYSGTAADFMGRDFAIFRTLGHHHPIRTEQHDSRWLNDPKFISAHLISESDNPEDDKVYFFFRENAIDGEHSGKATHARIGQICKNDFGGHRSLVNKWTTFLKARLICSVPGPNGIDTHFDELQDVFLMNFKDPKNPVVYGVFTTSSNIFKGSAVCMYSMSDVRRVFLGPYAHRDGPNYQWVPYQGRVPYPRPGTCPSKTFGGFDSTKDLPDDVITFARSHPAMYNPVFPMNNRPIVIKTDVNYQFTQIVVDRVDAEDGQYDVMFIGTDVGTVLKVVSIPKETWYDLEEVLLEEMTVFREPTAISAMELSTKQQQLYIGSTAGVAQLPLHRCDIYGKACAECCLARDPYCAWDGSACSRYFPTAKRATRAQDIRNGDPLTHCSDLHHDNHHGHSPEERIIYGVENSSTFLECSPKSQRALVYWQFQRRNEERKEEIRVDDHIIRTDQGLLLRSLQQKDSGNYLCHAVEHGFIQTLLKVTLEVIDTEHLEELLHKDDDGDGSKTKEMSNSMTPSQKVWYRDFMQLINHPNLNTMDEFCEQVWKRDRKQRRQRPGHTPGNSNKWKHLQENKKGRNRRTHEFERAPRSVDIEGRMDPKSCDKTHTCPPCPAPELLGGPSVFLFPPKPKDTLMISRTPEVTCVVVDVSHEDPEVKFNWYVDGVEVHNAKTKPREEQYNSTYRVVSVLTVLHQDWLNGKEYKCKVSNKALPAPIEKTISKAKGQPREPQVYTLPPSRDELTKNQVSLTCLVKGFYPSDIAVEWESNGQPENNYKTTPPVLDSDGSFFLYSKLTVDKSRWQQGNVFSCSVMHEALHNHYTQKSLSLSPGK
Experimental: For screening in a competition ELISA setup, human Sema3a (TPP-13211) was coated onto 384-well plates (Greiner bio-one, 781077) with a concentration of 0.5 μg/ml in coating buffer (Carbonate-Basis pH 9.6, Candor 121125) over night at 10° C. After washing the plates 3 times with 50 μl PBS 0.05% Tween the plates were blocked with 50 μl Smart Block® (Candor 113500) for 1 h at 20° C. and washed again 3 times as described.
Subsequently, 20 μl of pre-mixed antibody solution was added to the plates and incubate for 18 h at 10° C. […] The total concentration of the added antibody solution was 0.25 μg/ml. During the incubation time the antibodies bound to the plates in a competitive manner as they compete for the same epitope on the human Sema3A protein.
After subsequent washing with 50 μl PBS 0.05% Tween for 3 times, 20 μl of a Streptavidin-HRP solution (R&D Systems, DY998, 1:200 in PBS 0.05% Tween 10% Smart Block) were added and incubated for 1 h and 20° C. followed by subsequent washing 3 times with 50 μl PBS 0.05% Tween and addition of 20 μl Amplex Red solution (Invitrogen A12222, 1:1000 in NaP-buffer 50 mM pH7.6 with 1:10000 of 30% H2O2). After a final incubation for 20 min at 20° C. the signal was determined using an emission wavelength of 595 nm and excitation of 530 nm.

| Kd [1] [nM] | Kd [2] [nM] | Kd [3] [nM] | VAL norm to TPP-9809 (1 to 1 ratio) [4] | VAL norm to TPP-9809 (1 to 5 ratio) [4] | Binder |
| --- | --- | --- | --- | --- | --- |
| 8.1 | 6.4 | 8.7 |  |  | TPP-18533 (antibody, human IgG1, lambda, V domains shown, IgG1) VH: EVQLLESGGGLVQPGGSLRLSCAASGFTFSSYEMNWVRQAPGKGLEWVSGISWNSGSIGYADSVKGRFTISRDNSKNTLYLQMNSLRAEDTAVYYCARSGYSSSWFDPDFDYWGQGTLVTVSS VL: QSVLTQPPSVSGAPGQRVTISCTGSSSNIGAGYDVHWYQQLPGTAPKLLIYGNSNRPSGVPDRFSGSKSGTSASLAITGLQAEDEADYYCSSYAGSNPYVVFGGGTKLTVLG |
|  |  | 0.053 | 0.36 | 0.18 | TPP-25257 (antibody, human IgG1, lambda, V domains shown) VH: EVQLLESGGGLVQPGGSLRLSCAASGFDFDSYEMNWVRQAPGKGLEWVSGISWNSGWIDYADSVKGRFTISRDNSKNTLYLQMNSLRAEDTAVYYCARSGYSSSWFDPDFDYWGQGTLVTVSS VL: QSVLTQPPSVSGAPGQRVTISCTGSSSNIGAGYDVHWYQQLPGTAPKLLIYGNSNRPSGVPDRFSGSKSGTSASLAITGLQAEDEADYYCQSYAGPNPYVVFGGGTKLTVLG |
|  |  | 0.049 | 0.43 | 0.17 | TPP-25224 (antibody, human IgG1, lambda, V domains shown) VH: EVQLLESGGGLVQPGGSLRLSCAASGFTFDSYEMNWVRQAPGKGLEWVSGISWNSGWIDYADSVKGRFTISRDNSKNTLYLQMNSLRAEDTAVYYCARSGYSSSWFDPDFDYWGQGTLVTVSS VL: QSVLTQPPSVSGAPGQRVTISCTGSSSNIGAGYDVHWYQQLPGTAPKLLIYGNSNRPSGVPDRFSGSKSGTSASLAITGLQAEDEADYYCQSYAGINPYVVFGGGTKLTVLG |
|  |  | 0.05 | 0.36 | 0.2 | TPP-25248 (antibody, human IgG1, lambda, V domains shown) VH: EVQLLESGGGLVQPGGSLRLSCAASGFDFSSYEMNWVRQAPGKGLEWVSGISWNSGWIGYADSVKGRFTISRDNSKNTLYLQMNSLRAEDTAVYYCARSGYSSSWFDPDFDYWGQGTLVTVSS VL: QSVLTQPPSVSGAPGQRVTISCTGSSSNIGAGYDVHWYQQLPGTAPKLLIYGNSNRPSGVPDRFSGSKSGTSASLAITGLQAEDEADYYCQSYAGPNPYVVFGGGTKLTVLG |
|  |  | 0.053 | 0.47 | 0.19 | TPP-25448 (antibody, human IgG1, lambda, V domains shown) VH: EVQLLESGGGLVQPGGSLRLSCAASGFTFDSYEMNWVRQAPGKGLEWVSGISWNSGWIDYADSVKGRFTISRDNSKNTLYLQMNSLRAEDTAVYYCARSGYSSSWFDPDFDYWGQGTLVTVSS VL: QSVLTQPPSVSGAPGQRVTISCTGSSSDIGAGYDVHWYQQLPGTAPKLLIYGNSNRPSGVPDRFSGSKSGTSASLAITGLQAEDEADYYCQSYAGINPYVVFGGGTKLTVLG |
|  |  | 0.049 | 0.41 | 0.15 | TPP-25256 (antibody, human IgG1, lambda, V domains shown) VH: EVQLLESGGGLVQPGGSLRLSCAASGFTFDSYEMNWVRQAPGKGLEWVSGISWNSGWIDYADSVKGRFTISRDNSKNTLYLQMNSLRAEDTAVYYCARSGYSSSWFDPDFDYWGQGTLVTVSS VL: QSVLTQPPSVSGAPGQRVTISCTGSSSNIGAGYDVHWYQQLPGTAPKLLIYGNSNRPSGVPDRFSGSKSGTSASLAITGLQAEDEADYYCQSYAGPNPYVVFGGGTKLTVLG |
|  |  | 0.049 | 0.48 | 0.19 | TPP-25064 (antibody, human IgG1, lambda, V domains shown) VH: EVQLLESGGGLVQPGGSLRLSCAASGFTFDSYEMNWVRQAPGKGLEWVSGISWNSGWIDYADSVKGRFTISRDNSKNTLYLQMNSLRAEDTAVYYCARSGYSSSWFDPDFDYWGQGTLVTVSS VL: QSVLTQPPSVSGAPGQRVTISCTGSSSDIGAGYDVHWYQQLPGTAPKLLIYGNSNRPSGVPDRFSGSKSGTSASLAITGLQAEDEADYYCSSYAGPNPYVVFGGGTKLTVLG |
|  |  | 0.052 | 0.39 | 0.26 | TPP-25497 (antibody, human IgG1, lambda, V domains shown) VH: EVQLLESGGGLVQPGGSLRLSCAASGFDFDSYEMNWVRQAPGKGLEWVSGISWNSGWIDYADSVKGRFTISRDNSKNTLYLQMNSLRAEDTAVYYCARSGYSSSWFDPDFDYWGQGTLVTVSS VL: QSVLTQPPSVSGAPGQRVTISCTGSSSDIGAGYDVHWYQQLPGTAPKLLIYGNSNRPSGVPDRFSGSKSGTSASLAITGLQAEDEADYYCSSYEGINPYVVFGGGTKLTVLG |
|  |  | 0.051 | 0.37 | 0.17 | TPP-25255 (antibody, human IgG1, lambda, V domains shown) VH: EVQLLESGGGLVQPGGSLRLSCAASGFDFSSYEMNWVRQAPGKGLEWVSGISWNSGWIDYADSVKGRFTISRDNSKNTLYLQMNSLRAEDTAVYYCARSGYSSSWFDPDFDYWGQGTLVTVSS VL: QSVLTQPPSVSGAPGQRVTISCTGSSSNIGAGYDVHWYQQLPGTAPKLLIYGNSNRPSGVPDRFSGSKSGTSASLAITGLQAEDEADYYCQSYAGPNPYVVFGGGTKLTVLG |
